Patent publication US6300312A, “Antagonists of G-protein-coupled receptor” (Hô ;pital Sainte-Justine, priority 2000, dated 2001)

How the values were obtained:
EP1 = biological target: T1, EP1 (Homo sapiens, UniProt P34995); assay: Phosphoinositide hydrolysis in A549 cells stably expressing the peptides, stimulated with PGE2; format: cell-based; conditions: peptide stably expressed intracellularly in A549 cells; 1 μM PGE2, 30 min; FIG. 1B
T1 construct: a related prostaglandin receptor expressed in these cells; endogenous in cells; host or cells: A549 lung carcinoma cells (ATCC CCL185)
T1 sequence (P34995 1-402): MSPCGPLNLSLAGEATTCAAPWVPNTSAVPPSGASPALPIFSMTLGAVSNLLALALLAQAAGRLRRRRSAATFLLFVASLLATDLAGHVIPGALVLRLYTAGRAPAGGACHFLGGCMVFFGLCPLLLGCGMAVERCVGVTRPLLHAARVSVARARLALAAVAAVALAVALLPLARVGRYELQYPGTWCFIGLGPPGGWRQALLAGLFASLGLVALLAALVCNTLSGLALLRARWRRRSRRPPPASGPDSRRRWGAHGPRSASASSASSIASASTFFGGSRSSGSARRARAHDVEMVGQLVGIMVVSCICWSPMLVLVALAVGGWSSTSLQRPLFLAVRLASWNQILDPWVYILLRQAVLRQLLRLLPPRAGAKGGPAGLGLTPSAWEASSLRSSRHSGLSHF
Description: (§1) A549 lung carcinoma cells (ATCC Accession No.: CCL185, American Type Culture Collection, Rockville, Md. 20852) were cultured in Dulbecco's modified Eagles medium (DMEM) with 10% fetal bovine serum (FBS) and antibiotics, penicillin (10 U/ml) and streptomycin (10 μg/ml) in a humidified atmosphere containing 5% CO2 at 37° C. The cells were trypsinized and plated in 6-well tissue culture dishes at 2×10^5 cells/well, a day before commencing the experiments.
(§2) The expression plasmids carrying the third (PCP-1) and the fourth (PCP-2) intracellular domains were introduced into A549 cells using Transfectamine lipid (GIBCO Life Technologies, Burlington, ON). Three (3) micrograms of DNA and 16 μg of lipid were mixed in 200 μl of water and incubated at room temperature for 45 min. Then, the lipid-DNA complexes were diluted with 0.8 ml of Opti-MEM™ (GIBCO Life Technologies, Burlington, ON). The cells were washed twice with Hank's Balanced Salt Solution and incubated with lipid-DNA complexes for 6 hours. An equal volume of DMEM with 20% FBS was added and the cells were kept in the incubator overnight. On the next day, the medium was replaced with DMEM containing 10% FBS and antibiotics and incubated for another 24 hours. […]

FP receptor = biological target: T2, FP receptor (Homo sapiens, UniProt P43088); assay: Phosphoinositide hydrolysis in A549 cells stably expressing the peptides, stimulated with PGF2α; format: cell-based; conditions: peptide stably expressed intracellularly in A549 cells; 1 μM PGF2α, 30 min; n=3; FIG. 1A
T2 construct: introduced transiently into permeabilized A549 cells; endogenous in cells; host or cells: A549 lung carcinoma cells (ATCC CCL185)
T2 sequence (P43088 whole entry): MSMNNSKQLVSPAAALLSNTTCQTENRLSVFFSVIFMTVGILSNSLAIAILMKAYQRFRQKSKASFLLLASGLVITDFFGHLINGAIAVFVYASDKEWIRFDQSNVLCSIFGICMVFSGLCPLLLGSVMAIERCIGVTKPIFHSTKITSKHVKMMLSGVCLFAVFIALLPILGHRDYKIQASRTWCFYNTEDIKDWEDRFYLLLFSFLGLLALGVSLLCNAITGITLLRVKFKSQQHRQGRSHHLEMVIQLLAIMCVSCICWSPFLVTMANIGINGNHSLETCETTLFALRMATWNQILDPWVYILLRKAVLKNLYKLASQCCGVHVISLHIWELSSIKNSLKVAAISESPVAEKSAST
Description: as §1, §2

inositol phosphate generation by EP1 receptor on stimulation with PGE2 (EP1) | ligand-stimulated phosphoinositide hydrolysis (fold stimulation over unstimulated controls) (FP receptor) | Sequence
did not affect | inhibited | RKAVLKNLYKLASQCCGVHVISLHIWELSSIKNSLKVAAISESPVAEKSAST (RKAVLKNLYKLASQCCGVHVISLHIWELSSIKNSLKVAAISESPVAEKSAST) [PCP-2, fourth intracellular domain of the human FP receptor, expressed intracellularly from a plasmid]
did not affect | inhibited | RVKFKSQQHR QGRSHHLEM (RVKFKSQQHRQGRSHHLEM) [PCP-1, third intracellular domain of the human FP receptor, expressed intracellularly from a plasmid]
